This is an account of results in the DeepSol protein solubility set.

This series in a line: soluble on expression in E. coli; label from the status in PepcDB or PDB records.
Regarding “MGSDKIHHHHHHMKKVLTAALLMTAPFMANAGADFVKGDKTFAGEAELGATLTTGNTDTSSYKGRLNFKHELGDWENQYLLEGLYKEDTGAVTAKRYLAGAQGNYKMNDRSYWFANANYEVDPFTGYDYTLSGATGYGHRLLDTSKTFLDVEIGPGYIYQRLDSEQALLEGTDSNDSVVAHGVINFETEITETSKFQQRFVADYGEKLDARSETSLTANIIGALAMKFAIIVRYNSEPLDDKKSTDTETNMTLLYSF”, the “soluble on expression in E. coli” value is given as “not soluble”.
Consider “MRGKAMNIQRFIEKRKARGLSQSELAKGICTQVTVSRFEKNGQVPTLKILIQLCNRLELPLGELFPRVGIKQPEILEKMEEAEFFLITSEHDQLQTILKNIPFDEIKDSQLLLEYYYLQGFVMIFQNASLMDCLFTFEKLLFEEQKYTSDIYRLLAFTGIGMAYAKEGEIEKAEFYFNKVFKEIYLYTIQSMEDTWRVLNVVFHCGVFYAEKGDLETSDALLEYAISICSDNHVTYYLARAAFQLAKNALAEEKPQEQILELLQDARAYAKINKNRILLEAIQTLKETILSKGN”, for which the “soluble on expression in E. coli” value is “not soluble”.
For the sequence “MATATMLKPLGDRVVVKRIEEEAKTKGGIVLPDTAKEKPQKGKVVAVGSGRTLDNGTKVPLEVKEGDTVVFAKYGGTEIEIDGEEYIILSERDLLAVI”, the “soluble on expression in E. coli” value was “soluble”.
“MSLRTLPAIVMMTLYALAGLAHAQQPPWRVGFCQDTLDIPWRAAQAMTFSQTLQTDKRFQVILSDAKGNTTQQAIDLEHMVERGVHVLVTSPRDGAVLTPVISNIYRQGVPVVLLSRRTLDENFTTFIAPDDAEIGRQAARYLSKRLNEKGKILVIQGLGSASTTQQRTVGFIQELSLHPHMQIVAQPFANYKKEMAILIMESILAQKLPFDAIYVHSDAMALGAILALKRAGIDPTKLPIVSIDYTRAGRESLRKGEIDAIFTYPNGVKQGITAVKRILAGQPVNKFQTVPSTLVTQENINTLEPVEGHHHHHH”: the “soluble on expression in E. coli” value is reported as “soluble”.
In the case of “MKKYNIPVEATLEVIGGKWKVVILCHLTKGTKRTSELKRSMPGITQKMLTQQLRELEDDGVIQRKVYNQVPPKVEYSLTDYGWSLESILDSLCSWGECHLEKEGNTSMLIAEGE” it was “not soluble”.
In the case of “VQQLSLFGSIGDDGYDLLISTLTTISGNPPLLYNSLCTVWKPNPSYDVENVNSRNQLVEPNRIKLSKEVPFSYLIDETMMDKPLNFRILKSFTNDKIPLNYAMTRNILHNTVPQVTNFNSTNEDQNNSKHTEDTVNESRNSDDIIDVDMDASPAPSNESCSPWSLQISDIPAAGNNRSVSMQTIAETIILSSAGKNSSVSSLMNGLGYVFEFQYLTIGVKFFMKHGLILELQKIWQIEEAGNSQITSGGFLLKAYINVSRGTDIDRINYTETVLMNLKKELQGYIELSVPDRQSMDSRVAHGNILIAAALEHHHHHH” it was “soluble”; in that of “MTRCPERPGFMPRLSSHHFSRSRLSAPLLASGARVKLLCAPAGSGKTALLAECLQQAPETCRVSWLPLSGGRHSPQGLCAALAQALGLERDDEATVLQHLAHLQAPAWIFIDDYCRVAAADLDLLLDRLLSLDNPQLTWWLGCRRRPLCNWPRLLLDDQLFELDGPALAFSQIEIEQLLQRLPQPLCAQTASRILQRSGGWCAGVRIALLEGSELTIQPCKPGRPNTLLEYLEHELFSVLPAELAQVWQVLAHLPRFNAELCEHLFGVGEGAQYLRTLQDMACFIEPWDGGGDWLQVFPPLARLMRDE”, “not soluble”; in that of “HFVKSVEDKAISVTLAQGNIEQNLKWDPNYFYSTLAIYQKLITENLGKTDLIILPESALPTLENAITPFFEGLERAAKETKTEIMVGTVFQDTKSGKLLNSIMTAGNPDFPYQPNTQNRYNKHHLVPFGEYVPLESILRPLNSVFNLPMSAFQSGEAVQPSLIAKKRAFSPAICYEIIFGEQVRQNLKQDTDYLLTLSNDAWFGDSIGPWQHLQMARMRALELGKPLIRATNTGISVFVDAQGKVLAQAPQFIETTLTYKIAPAEGKTPYSVLGNMPLYALSLLFLLLHS”, “not soluble”.
As for “MADKENATKIEKMPNSETMKGISSEDVPFEEDIIRNPTSVNCWQRYIDHKLQNKSPAKQMFLIYERALAVFERSYKLWYHYLKYRESTIVNKCPTDNSWRALCDTYERCLMRLHKMPRIWICYCEVMIKRGLITETRRVFDRALRSLPVTQHMRIWTLYIGFLTSHDLPETTIRVYRRYLKMNPKAREDYVEYLIERDQIDEAAKELTTLVNQDQNVSEKGRTAHQLWTQLCDLISKNPVKIFSLNVDAIIRQGIYRYTDQVGFLWCSLADYYIRSAEFERARDVYEEAIAKVSTVRDFAQVYDAYAAFEEREVSIMMQEVEQSGDPEEEVDLEWMFQRYQHLMERKNELMNSVLLRQNPHNVGEWLNRVNIYEGNYNKQIETFKEAVKSVNPKIQVGKVRDLWIGLAKLYEDNGDLDAARKTFETAVISQFGGVSELANVWCAYAEMEMKHKRAKAALTVMQRACVVPKPGDYENMQSVQARVHRSPILWAMYADYEECCGTVESCRKVYDKMIELRVASPQMIMNYAMFLEENEYFELAFQAYEKGIALFKWPGVFDIWNTYLVKFIKRYGGKKLERARDLFEQCLENCPPTHAKYIFLLYAKLEEEHGLARHALSIYNRACSGVDRADMHSMYNIYIKKVQEMYGIAQCRPIFERAISELPEDKSRAMSLRYAQLETTVGEIDRARAIYAHAAEISDPKVHVKFWDTWKNFEVAHGNEATVRDMLRVRRSVEASYNVNVTLTSVQMRVDAERKAQETTTSSNPMDSLDQQQQQPSDGAGSITQVSMNKGNISFVRGAGKTVQQNTTENPDEIDLDEDDDDEEDDGGDADISVKVVPAQIFGNLKLAEEEEEA”, the “soluble on expression in E. coli” value is given as “soluble”.
With “MGSDKIHHHHHHMHVIKAKDDYTYRHTVGVSILSRLIGTWLKLDEVILKELTLGAVLHDIGKVEIPDAILNKPGALTKDEYRIIQDHTVKGYRIIQESGIYSDTVALMALEHHEREDGTGYPYQKTRNEIHLLSKILAVADVFHAMTSDRIYRKGMALYDVLLQMRQDRFGKLEPRITDFFVRRFMEQCIGSKARLNDGSRVEIVFIPYENPICPIVKQGTNYIDLRMSPLYIQELIPVTVKV”, the “soluble on expression in E. coli” value is on record as “not soluble”.
“MDQAQRFLRQHPEHADLRIWGLNAFDPSQGNLLLPRLEWRRCGGKATLRLTLFSESSLQHDAIQAKEFIATLVSIKPLPGLHLTTTREQHWPDKTGWTQLIELATKTIAEGELDKVVLARATDLHFASPVNAAAMMAASRRLNLNCYHFYMAFDGENAFLGSSPERLWRRRDKALRTEALAGTVANHPDDKQAQQLGEWLMADDKNQRENMLVVEDICQRLQADTQTLDVLPPQVLRLRKVQHLRRCIWTSLNKADDVICLHQLQPTAAVAGLPRDLARQFIARHEPFTREWYAGSAGYLSLQQSEFCVSLRSAKISGNVVRLYAGAGIVRGSDPEQEWQEIDNKAAGLRTLLQME”: the “soluble on expression in E. coli” value was “not soluble”.
To “IPMRLLSDCPQFSRKTVKLLTNGGDMLELCYELRLPFVHWISVNQKSSFKRYEISHVYRRAIGHSPPNPCLQADFDIVGGTLSLTEAEVLKVIVDITTHIFHRGSCDIHLNHGDLLDAIWSWAGIKAEHRRKVAELLSMMGSLRPQSSERKLKWVFIRRQLLQELKLPEAVVNRLQTVASRFCGDADQALPRLRGALRADRPTRKALDELSNLLTYLRVWRIEEHVHIDVLMPPTESYHRNLFFQVFLTKENSSGTSNDGVLLAVGGRYDWLVQEVCDREHKMNLPGAVGVSLALETIFQHLPMDLRPIRNEVSTSVLVCSRGGGGLLVQRMELVAELWEKSIKAEFVPTPDPSLTEQYEYANEHEIKCLVIITESGVAQNQIEFVKVRHLELKKEKVVGR” belongs “soluble”; to “MEVSHVTLEPNKDSRPAVLTIGKFDGVHLGHQTILNTALSIKKENEILTAISFSPHPLWALKQIEIYREMLTPRMEKERWLAHYGVDHLIETAFTPRYAETTPEEFVTDHLSNLQLSHIIVGSEFNFGKGRDSDVDLLRDLCKPYGIGVTSVPVIETNQTKISSTNIRAFIRRGHFLEAEQLLGHP”, “not soluble”.
In the case of “MGHHHHHHSHMAIVEHLYQQGMLSVAEELCQESTLNVDLDFKQPFLELNRILEALHEQDLGPALEWAVSHRQRLLELNSSLEFKLHRLHFIRLLAGGPAKQLEALSYARHFQPFARLHQREIQVMMGSLVYLRLGLEKSPYCHLLDSSHWAEICETFTRDACSLLGLSVESPLSVSFASGCVALPVLMNIKAVIEQRQCTGVWNHKDELPIEIELGMKCWYHSVFACPILRQQTSDSNPPIKLICGHVISRDALNKLINGGKLKCPYCPMEQNPADGKRIIF” it was “not soluble”; in that of “GSHMLGERLGIPAPRRIEAFDNSNIYGADPVSALVVFLDGKPAKKEYRKYKVKTVAGPNDYETMREVVRRRYTRVLKEGLPLPDLIIIDGGKGHLSAVRDVLENELGLDVPLAGLAKDEKHRTSELLAGDPPDVVPLDRQSQEFYLLQRIQDEVHRFAVMFHRKTRQKTMFHSVLDDIPGVGEKRKKALLNYFGSVKKMKEATVEELQRANIPRAVAEKIYEKLHE”, “soluble”; in that of “MPCDPIGQFAVLECLDYRWYESLDVRLYGSFGLLQLFPELEKAVMRAFARAIPQGDDTPRVIGYYYTIGAESPIAVRKTPGATPHDLGAPNEHVWEKTNYTSYQDCNLWKDLGCDFVLQVYRDFLLTGADDVQFLRDCWDAIVETLDYVKTFDLDGDGIPENSGAPDQTFDDWRLQGVSAYCGGLWLAALAAAIAISDILLQNHQDSATKEHLLYQKSTYETWLTKSLPIYQEKLWNGKYYRLDSESGSDVVMADQLCGQFYANLLELPDIVPSDRAISALQTVYDACFLKFYDGQFGAANGVRPDGSPENPKATHPLEVWTGINFGLAAFLVQMGMKDEGFRLTQAVVEQIYNNGLQFRTPEAITAAGTFRASTYLRPMAIWAIYLMIGLEHHHHHH”, “not soluble”.
To “MSESFAELFEESLKSLDMQPGAIITGIVVDIDGDWVTVHAGLKSEGVIPVEQFYNEQGELTIKVGDEVHVALDAVEDGFGETKLSREKAKRAESWIVLEAAFAADEVVKGVINGKVKGGFTVDVNGIRAFLPGSLVDVRPVRDTTHLEGKELEFKVIKLDQKRNNVVVSRRSVLEAENSAEREALLESLQEGQQVKGIVKNLTDYGAFVDLGGVDGLLHITDMAWKRIKHPSEIVNVGDEIDVKVLKFDRERNRVSLGLKQLGEDPWVAIKARYPEGTRVMARVTNLTDYGCFAELEEGVEGLVHVSEMDWTNKNIHPSKVVQVGDEVEVQVLDIDEERRRISLGIKQCKSNPWEDFSSQFNKGDRISGTIKSITDFGIFIGLDGGIDGLVHLSDISWNEVGEEAVRRFKKGDELETVILSVDPERERISLGIKQLEDDPFSNYASLHEKGSIVRGTVKEVDAKGAVISLGDDIEGILKASEISRDRVEDARNVLKEGEEVEAKIISIDRKSRVISLSVKSKDVDDEKDAMKELRKQEVESAGPTTIGDLIRAQMENQGLEHHHHHH” belongs “soluble”; to “MKVLILGGGYTGQRLAQLLAAQSIPVLATTRSGQWPLDEPCVTFDAGSTPLLLPDPAALAGVTHVLSTIPPLGDGGDPVLSTLLPTLQYLSLQWCGYLSTTGVYGDTQGAWVDEDSPLQSTNRRSQQRIAIEAQWLASGLPAHIFRLPGIYGPGRSSFDRLRRGDNQRLLKPGHVFCRIHVDDIAAALWASLQQPNPGRIYNVSDDFPCEPALLIEAAAQLMGVELPPPLPVDAVELSPMAASFWSECRRVRNDRLKQELGVQLRYPSYREGLAAIWAAELEHHHHHH”, “not soluble”.
